The values below come from US20180094062A1 (Hoffmann-La Roche, published 2018).

Where “and” joins values, the source holds several entries; their conditions need not be identical. Identical values can stand only once.

The target of test [1] is T1, human HER3, full length, on cells (T47D, MCF7, transfected HEK293) (human, UniProt P21860 20-1342).
T1 construct: endogenous on T47D and MCF7 tumor cells, transient full length in HEK293 (formalin fixed for IHC); also called expressed HER3 ECD
The test is described as follows: FACS on T47D cells, 0 minutes incubation.

In test [2] the target is T2, human recombinant HER3 Extracellular Domain (HER3 ECD) (human, UniProt P21860 20-643).
T2 construct: 68 kDa; also called human-Her3-ECD
The experiment in a line: SPR Biacore T100, antibody captured, 25 C, Langmuir fit. Here is the method:
(§1) A CM5 series sensor was mounted into the system and was normalized in HBS-ET buffer (10 mM HEPES pH 7.4, 150 mM NaCl, 3 mM EDTA, 0.005% w/v Tween 20) according to the manufacturer's instructions. The sample buffer was the system buffer supplemented with 1 mg/ml CMD (Carboxymethyldextran, Sigma #86524). The system operated at 25° C. 6500 RU RAM-Fcγ (relative units of Fcγ-fragment RamlgG, GE Healthcare) were immobilized according to the manufacturer's instructions using EDC/NHS chemistry on all four flow cells. The sensor was deactivated using 1M ethanolamine.
(§2) Analytes in solution were injected at different concentration steps of 0 nM, 1.1 nM, 3.7 nM, 11.1 nM, 33.1 nM and 90 nM for 3.5 min. The dissociation was monitored for 15 min. Where possible, kinetic signatures were evaluated according to a Langmuir fit.
In general terms: Surface plasmon resonance follows binding to a sensor surface in real time, without labels.

In test [3] the target is T3, recombinant Thermus thermophilus SlyD FKBP-Her3 (TtSlyD-FKBP-Her3).
T3 construct: expressed in E. coli, the N-terminal methionine can be present or not; also called thermo SlyD-Her3; T.T.SlyD-Her3
T3 chain: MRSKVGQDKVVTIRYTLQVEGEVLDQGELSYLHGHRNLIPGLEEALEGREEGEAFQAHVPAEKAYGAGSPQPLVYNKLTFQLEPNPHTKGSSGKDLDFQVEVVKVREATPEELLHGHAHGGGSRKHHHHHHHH
Described as above. Here is the method:
as §1, §2

The target in test [4] is T4, HER1, full length, on transfected HEK293 cells (human, UniProt P00533 25-1210).
T4 construct: HEK293 transiently transfected with a plasmid coding for full length HER1; also called EGFR
The test is described as follows: IHC on HEK293 cells transiently transfected with full length HER1. As to the method: All selected clones were tested for reactivity and specificity in IHC. […] After an additional fixation in formalin overnight the Agarose blocks were embedded in paraffin. Untransfected HEK293 cells were used as negative controls and treated accordingly to the transfected cells. After paraffin embedding 3 μm thin sections were prepared using a microtome. The sections were mounted on glass microscopy slides and dried for 2 h. All further steps of the immunohistochemical staining procedure were carried out using a Ventana Benchmark XT. The slides were dewaxed and antigen retrieval was performed by applying heat for 1 hour. For antigen retrieval the Ventana buffer CC1 was used. The antibodies were used at a concentration of 1 μg/ml. For the detection of bound antibody the Ventana UltraView detection kit was used.

B1: anti-HER3 antibody M-08-11 (antibody, V domains shown)
VH: QAYLQQSGAELMRPGASVRMSCQASGYTFTSYTIHWLKQTPRQGLEWIGAIYPRNGDFSYNQKFKDKASLTVDTSSSTAYMHLSSLTSEDSAVYFCARTINYGDWFAYWGQGTLVTVSA
VL: DIQMIQSPASLFVSEGETVIITCRASENIYSNLAWYHQKKGKSPQVLVYAAIKLADGVPLRFSGSGSGTQFSLKINSLQSEDFGSYYCQHFWGPPYTFGSGTNLEIK
notes: mouse monoclonal antibody from hybridoma, tested as hybridoma supernatant or as antibody; also called M-011
One may read the Kd as the concentration at which binding is half-saturated. As usually defined, the koff is a measure of how fast the partners let go of each other. One may read the kon as the rate constant with which the complex forms. Turning to B1, the “fold binding level with HRG against without HRG” value in test [1] is not below 2 fold. Moreover, in test [2], the Kd is 1.08 nM and 1 nM; the koff came to 5.32e-05 s⁻¹; the kon came to 49300 M⁻¹ s⁻¹. In test [3], the Kd is 1.6 nM and 2 nM; the koff is 0.00014 s⁻¹; the kon is 87000 M⁻¹ s⁻¹. Moreover, in test [4], the binding result is given as “no binding”.
